Source: the supplement of paper PMC12338614

B1: library; numbered along this chain (parent)
chain: MEVVDPQQLGMFTEGELMSVGMDTFIHRIDSTEVIYQPRRKRAKLIGKYLMGDLLGEGSYGKVKEVLDSETLCRRAVKILKKKKLRRIPNGEANVKKEIQLLRRLRHKNVIQLVDVLYNEEKQKMYMVMEYCVCGMQEMLDSVPEKRFPVCQAHGYFCQLIDGLEYLHSQGIVHKDIKPGNLLLTTGGTLKISDLGVAEALHPFAADDTCRTSQGSPAFQPPEIANGLDTFSGFKVDIWSAGVTLYNITTGLYPFEGDNIYKLFENIGKGSYAIPGDCGPPLSDLLKGMLEYEPAKRFSIRQIRQHSWFRKKHPPAEAPVPIPPSPDTKDRWRSMTVVPYLEDLHGADEDEDLFDIEDDIIYTQDFTVPGQVPEEEASHNGQRRGLPKAVCMNGTEAAQLSTKSRAEGRAPNPARKACSASSKIRRLSACKQQ

Variants of: B1
Test: STK11 functional score (HeLa growth suppression), rescaled enrichment; synonymous median = 1, nonsense median = 0 (normalised score)
Conditions: with HeLa; variant type: missense
Summary of the method: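 The values are functional scores: wild-type-corrected log ratios of post- versus pre-selection abundance, rescaled to synonymous and nonsense medians, merged over codons and replicate transfections, and carrying bootstrapped error. They derive from codon-randomised (POPCode), codon-optimised STK11 libraries that Bxb1 integrated at an AAVS1 landing pad in HeLa, with three transfections for each of three regions. Sequencing of tiled gDNA amplicons ran on NextSeq, at ~2 million reads per tile.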

STK11 functional score, by site and new letter:
D284: T 0.863 | G 0.99 | P 0.0198 | C 0.513 | L 0.935 | A 0.668 | N 1.29 | S 1.27 | E 1 | R 1.55 | H 1.14 | V 0.716 | W 0.576 | I 1.14 | F 0.579
L286: D -0.166 | H 0.00834 | N 0.195 | Y 1.36 | E 0.235 | R -0.117 | A 0.163 | Q 0.0782 | W 1.16 | S 0.0276 | P -0.27 | F 0.971 | G -0.0797 | V 1.14 | T 1.12 | I 1.36
S283: T 1.47 | M 1.28 | D 1.29 | A 1.24 | P 1.15 | N 1.4 | W 0.819 | V 1.17 | F 0.745 | L 0.985 | E 0.826 | R 1.29 | C 0.98 | Y 0.69 | Q 1.51 | G 1.19 | I 0.942
P275: M 0.445 | K 1.45 | V 0.683 | N 1.41 | T 0.875 | I 1.17 | Y 0.943 | F 0.767 | E 0.52 | S 0.957 | W 0.995 | L 0.807 | G 1.14 | R 1.12
G288: S 0.938 | F 0.357 | C 0.989 | H 1.61 | R 0.927 | P 0.0262 | Y 0.713 | D -0.347 | L 0.221 | V 0.518 | I -0.0856 | A 0.95 | E 1.5 | M 1.23
D277: I 1.45 | V 1.23 | A 0.843 | T 1.59 | N 1.15 | R 1.34 | W 0.81 | H 1.36 | M 0.115 | S 0.886 | F 1.35 | G 1.16 | L 0.92 | C 1.32
P294: I 0.351 | A 1.39 | D 0.708 | N 0.433 | W 1.36 | H 0.973 | L 0.297 | G 0.877 | T 1.09 | V 1.36 | Q 1.39 | E 1.3 | S 0.67 | R 0.705 | M 1.13
A295: V 1.17 | C 1.31 | S 1.44 | D 1.21 | I 1.35 | G 1.37 | F 1.08 | H 1.4 | W 1.36 | N 1.24 | L 0.756
L285: T -0.111 | S -0.0113 | G -0.0815 | A -0.0789 | R -0.201 | V 0.239 | Y -0.477 | D -0.216 | W -0.0646 | Q -0.0107 | I 0.951 | P -0.13 | H -0.443 | F 0.988 | E -0.0678
C278: H 1.06 | K 1.57 | I 0.402 | V 0.943 | Y 0.449 | Q 0.612 | W 0.795 | S 1.21 | T 1.22 | G 1.08 | M 1.37 | D 1.03 | A 1.29 | R 1.51 | F 0.811 | P 1.22 | L 1.08 | N 1.12 | E 1.66
K287: R 0.533 | G 1.28 | A 0.932 | D 1.27 | P 0.105 | T 1.25 | F 1.25 | I 1.27 | E 1.62 | Y 0.843 | L 0.865 | V 1.2 | H 1.3 | W 0.0714 | Q 1.19 | N 1.49 | S 0.94
